Legend:
Assay in all cases: co-IP
[1] = target: T1, GFP-tagged TOMM70 (UniProt O94826 1-608)
T1 sequence: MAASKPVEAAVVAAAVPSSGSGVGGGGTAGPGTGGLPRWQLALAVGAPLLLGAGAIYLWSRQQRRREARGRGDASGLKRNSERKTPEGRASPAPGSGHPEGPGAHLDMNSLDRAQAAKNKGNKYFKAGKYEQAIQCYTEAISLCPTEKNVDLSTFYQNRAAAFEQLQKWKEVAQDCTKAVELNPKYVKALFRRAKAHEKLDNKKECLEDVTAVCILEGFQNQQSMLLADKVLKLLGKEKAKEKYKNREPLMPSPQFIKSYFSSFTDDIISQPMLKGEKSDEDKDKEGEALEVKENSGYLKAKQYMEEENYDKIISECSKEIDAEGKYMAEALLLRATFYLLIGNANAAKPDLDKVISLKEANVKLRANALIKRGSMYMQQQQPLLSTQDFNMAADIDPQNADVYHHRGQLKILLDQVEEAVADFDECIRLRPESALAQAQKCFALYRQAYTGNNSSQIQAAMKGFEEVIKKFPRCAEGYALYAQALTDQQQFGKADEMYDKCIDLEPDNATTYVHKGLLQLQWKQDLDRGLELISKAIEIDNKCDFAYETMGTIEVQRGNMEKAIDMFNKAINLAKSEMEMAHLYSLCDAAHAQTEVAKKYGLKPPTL

[2] = target: T2, GFP-tagged TOMM20 (UniProt Q15388 1-145)
T2 sequence: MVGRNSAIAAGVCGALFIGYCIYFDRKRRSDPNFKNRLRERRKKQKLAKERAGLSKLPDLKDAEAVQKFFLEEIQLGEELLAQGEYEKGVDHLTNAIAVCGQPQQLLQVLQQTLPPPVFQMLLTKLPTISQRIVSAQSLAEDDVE

[3] = target: T3, GFP-tagged Prohibitin (PHB) (UniProt P35232 1-272)
T3 sequence: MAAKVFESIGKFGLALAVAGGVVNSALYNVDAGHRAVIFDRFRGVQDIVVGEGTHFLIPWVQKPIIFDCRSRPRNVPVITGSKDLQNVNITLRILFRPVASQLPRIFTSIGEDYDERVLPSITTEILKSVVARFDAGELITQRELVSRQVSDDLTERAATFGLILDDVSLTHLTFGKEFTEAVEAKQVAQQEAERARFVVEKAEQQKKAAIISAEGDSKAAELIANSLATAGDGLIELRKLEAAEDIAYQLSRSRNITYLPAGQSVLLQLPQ

Measured: fold less AURKA in the pulldown than in pulldowns of TPX2

B1: endogenous AURKA (Aurora A kinase) (enzyme)
chain: MDRSKENCISGPVKATAPVGGPKRVLVTQQFPCQNPLPVNSGQAQRVLCPSNSSQRIPLQAQKLVSSHKPVQNQKQKQLQATSVPHPVSRPLNNTQKSKQPLPSAPENNPEEELASKQKNEESKKRQWALEDFEIGRPLGKGKFGNVYLAREKQSKFILALKVLFKAQLEKAGVEHQLRREVEIQSHLRHPNILRLYGYFHDATRVYLILEYAPLGTVYRELQKLSKFDEQRTATYITELANALSYCHSKRVIHRDIKPENLLLGSAGELKIADFGWSVHAPSSRRTTLCGTLDYLPPEMIEGRMHDEKVDLWSLGVLCYEFLVGKPPFEANTYQETYKRISRVEFTFPDFVTEGARDLISRLLKHNPSQRPMLREVLEHPWITANSSKPSNCQNKESASKQS
≥ 10 fold: all assays above

— doi:10.1101/236612 (bioRxiv, 2017)
